In the supplement of paper PMC10567573:

B1: ISL2 (parent)
chain: HYPFLGAMGDHSKKKPGTAMCVGC

Variants of: B1
Experiment: protein stability index of a GFP-peptide fusion (GPS, HEK-293T) (PSI 1-6); higher = more stable
Settings: c terminus: a fixed tail appended
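Note: lentivirally expressed fusions sorted by FACS into six bins by GFP to DsRed ratio, PSI derived from sequencing read proportions per bin multiplied by bin number.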

Protein stability index of substitutions, site by site:
T18: G 2.5 | S 2.76 | C 3.02 | V 2.25 | N 2.71 | D 3.4 | L 2 | R 1.81 | Q 2.67 | F 2 | P 2.65 | Y 2.15 | E 2.94 | M 2.67 | K 2.71 | H 2.59 | W 1.47 | I 2 | A 2.62
G17: S 2.75 | N 3.01 | V 2.26 | F 2.46 | D 3.35 | M 2.43 | T 2.8 | E 3.44 | C 3.97 | H 3.18 | I 1.98 | R 2.23 | P 2.75 | K 3.11 | Y 2.58 | L 2.1 | A 2.86 | Q 3.46 | W 1.63
M20: F 1.87 | Q 3.09 | T 3.16 | E 3.62 | G 3.03 | K 3.7 | W 2.04 | C 3.18 | N 3.16 | L 2.44 | P 3.03 | R 3.25 | D 3.61 | S 3.55 | I 2.29 | V 2.62 | A 3.27 | H 2.85
G9: Q 2.77 | I 1.95 | C 3.51 | W 1.86 | S 2.65 | V 2.09 | T 2.82 | R 2.19 | K 2.52 | P 2.96 | Y 2.31 | L 2.4 | D 2.85 | M 2.65 | E 3.58 | H 3.05 | A 3.37 | N 2.58 | F 1.7
K14: Q 2.45 | R 2.67 | T 2.58 | F 1.98 | W 1.51 | G 2.34 | E 3.44 | C 4.25 | H 3.07 | I 2.78 | N 2.8 | V 2.73 | Y 1.74 | A 2.29 | L 2.44 | M 2.91 | S 2.51 | D 3 | P 2.98
G6: T 2.81 | D 3.2 | S 2.32 | E 3.16 | H 2.46 | Y 2.49 | M 2.07 | L 2.07 | V 1.93 | I 2.27 | K 2.92 | A 3.07 | Q 2.81 | F 1.86 | W 1.75 | P 2.83 | R 2.13 | C 3.15 | N 2.54
A19: C 4.28 | F 1.63 | Y 2.12 | Q 2.91 | V 2.37 | L 2.56 | S 3.72 | P 2.86 | K 2.8 | R 2.06 | H 3.2 | W 1.3 | G 2.32 | M 2.28 | I 2.16 | D 3.66 | E 3.29 | T 2.76 | N 2.44
H11: T 2.45 | V 2.39 | Q 3.25 | C 2.64 | D 3.5 | E 3.44 | R 2.92 | M 2.74 | P 3.16 | A 2.69 | L 2.21 | G 2.81 | S 2.35 | I 2.33 | N 2.92 | W 1.93 | F 2.19 | Y 1.99 | K 2.9
K13: C 3.8 | F 2.34 | I 2.04 | W 1.9 | Q 2.69 | R 1.8 | T 2.8 | M 2.31 | P 2.84 | S 2.64 | H 3.04 | D 3.18 | N 2.79 | G 2.65 | A 2.15 | E 3.07 | L 2.23 | Y 2.06 | V 2.4
D10: E 3.69 | S 2.86 | Y 1.56 | L 2.39 | G 2.18 | W 1.64 | H 2.52 | K 1.88 | R 2.07 | A 2.39 | C 2.6 | T 2.37 | Q 1.78 | M 1.79 | V 1.7 | N 2.07 | P 2.35 | I 2.2 | F 1.81
F4: L 2.51 | H 3.73 | Q 3.58 | Y 2.21 | P 3.34 | M 3.48 | W 3.02 | T 3.19 | K 2.92 | C 3.27 | G 3.25 | R 2.89 | E 4.72 | N 3.38 | V 3.3 | I 3.03 | S 3.48 | D 3.83 | A 3.75
P16: S 2.69 | N 2.7 | I 1.67 | F 1.62 | V 2.06 | T 2.37 | M 2.45 | G 2.19 | D 3.02 | L 2.17 | A 2.52 | E 3.07 | Y 2.42 | C 3.12 | W 2.41 | H 2.61 | K 2.24 | Q 2.44 | R 1.99
K15: D 2.75 | C 3.46 | I 2.05 | L 2.42 | H 2.47 | G 2.37 | V 2.13 | E 2.77 | Y 2.02 | P 2.4 | W 1.67 | S 2.52 | Q 2.52 | T 2.75 | A 2.27 | M 2.2 | F 2.07 | N 2.61
P3: T 2.04 | Y 1.69 | S 2.27 | Q 3.11 | H 2.31 | K 2.15 | R 2.35 | L 1.77 | N 2.5 | I 2.26 | W 1.76 | V 2.06 | M 2.18
S12: M 1.92 | Q 3.07 | D 3.26 | P 2.27 | R 2.72 | C 3.95 | W 2.52 | Y 2.48 | E 3.03 | N 2.92 | H 2.73 | K 2.56 | A 2.53 | F 2.08 | V 2.58 | T 2.59 | I 1.8 | G 2.56 | L 1.99
M8: K 3 | G 3.85 | F 2.55 | W 2.17 | I 2.3 | E 3.81 | V 2.96 | T 2.82 | D 3.52 | C 3.33 | P 3.07 | S 2.52 | Q 3.16 | L 3.55 | A 4.25 | H 2.8 | R 3.19 | Y 2.51 | N 2.94
A7: K 2.86 | N 3.6 | V 2.37 | W 1.95 | I 1.9 | Y 1.84 | R 2.31 | F 1.79 | H 2.45 | E 3.79 | S 2.74 | G 2.99 | M 2.31 | L 2.45 | P 2.6 | T 2.93 | Q 3.22 | D 3.68 | C 3.85
L5: H 2.96 | Y 2.2 | M 3.01 | N 2.49 | V 2.63 | I 3.14 | P 3.13 | T 2.96 | W 2.23 | K 2.47 | D 3.75 | A 3.15 | Q 3.16 | R 2.66 | C 3.56 | E 3.78 | F 3.19 | G 3.5 | S 3.1
